# Results as given in paper PMC3951439 (Science (New York, N.Y.), 2013).
# Target: PRC2 (Homo sapiens, UniProt Q15910)
# Assay: PRC2 histone methyltransferase assay on nucleosomes
# Assay type: biochemical
# Settings: peptide titration, µM concentrations; fluorography (Fig. 3E, fig. S3, D and E)
# Chain of PRC2 (Q15910 whole entry): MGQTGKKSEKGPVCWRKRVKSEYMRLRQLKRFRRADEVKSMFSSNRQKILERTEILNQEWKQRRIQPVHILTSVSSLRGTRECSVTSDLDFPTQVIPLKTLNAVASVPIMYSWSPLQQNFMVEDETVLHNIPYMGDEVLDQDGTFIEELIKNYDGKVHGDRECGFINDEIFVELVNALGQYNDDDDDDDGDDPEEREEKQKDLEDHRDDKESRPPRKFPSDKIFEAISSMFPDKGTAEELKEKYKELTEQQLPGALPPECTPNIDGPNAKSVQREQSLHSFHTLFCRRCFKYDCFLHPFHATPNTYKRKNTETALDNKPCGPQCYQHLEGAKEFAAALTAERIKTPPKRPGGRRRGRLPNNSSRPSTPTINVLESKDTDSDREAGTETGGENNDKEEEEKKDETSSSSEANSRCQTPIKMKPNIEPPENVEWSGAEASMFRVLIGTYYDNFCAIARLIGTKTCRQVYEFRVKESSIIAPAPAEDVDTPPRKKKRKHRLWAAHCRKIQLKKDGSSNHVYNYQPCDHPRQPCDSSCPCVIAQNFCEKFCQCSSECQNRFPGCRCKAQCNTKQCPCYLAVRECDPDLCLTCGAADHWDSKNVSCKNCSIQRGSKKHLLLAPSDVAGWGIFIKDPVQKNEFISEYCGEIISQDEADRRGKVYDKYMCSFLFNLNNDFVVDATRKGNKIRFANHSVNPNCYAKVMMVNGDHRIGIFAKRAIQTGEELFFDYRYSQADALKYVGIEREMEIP
# Chain of PRC2 (O75530 whole entry partner): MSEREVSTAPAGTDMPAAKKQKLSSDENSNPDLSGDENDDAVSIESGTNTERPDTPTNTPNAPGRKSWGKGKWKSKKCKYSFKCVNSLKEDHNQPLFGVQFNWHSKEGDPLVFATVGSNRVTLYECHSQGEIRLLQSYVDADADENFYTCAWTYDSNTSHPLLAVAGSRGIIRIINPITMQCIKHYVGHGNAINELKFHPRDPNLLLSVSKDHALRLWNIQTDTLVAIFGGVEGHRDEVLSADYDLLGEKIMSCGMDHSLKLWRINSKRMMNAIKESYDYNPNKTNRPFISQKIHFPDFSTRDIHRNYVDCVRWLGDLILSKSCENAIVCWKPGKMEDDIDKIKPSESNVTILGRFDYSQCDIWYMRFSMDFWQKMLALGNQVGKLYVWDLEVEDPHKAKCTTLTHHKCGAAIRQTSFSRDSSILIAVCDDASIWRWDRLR
# Chain of PRC2 (Q6ZN18 whole entry partner): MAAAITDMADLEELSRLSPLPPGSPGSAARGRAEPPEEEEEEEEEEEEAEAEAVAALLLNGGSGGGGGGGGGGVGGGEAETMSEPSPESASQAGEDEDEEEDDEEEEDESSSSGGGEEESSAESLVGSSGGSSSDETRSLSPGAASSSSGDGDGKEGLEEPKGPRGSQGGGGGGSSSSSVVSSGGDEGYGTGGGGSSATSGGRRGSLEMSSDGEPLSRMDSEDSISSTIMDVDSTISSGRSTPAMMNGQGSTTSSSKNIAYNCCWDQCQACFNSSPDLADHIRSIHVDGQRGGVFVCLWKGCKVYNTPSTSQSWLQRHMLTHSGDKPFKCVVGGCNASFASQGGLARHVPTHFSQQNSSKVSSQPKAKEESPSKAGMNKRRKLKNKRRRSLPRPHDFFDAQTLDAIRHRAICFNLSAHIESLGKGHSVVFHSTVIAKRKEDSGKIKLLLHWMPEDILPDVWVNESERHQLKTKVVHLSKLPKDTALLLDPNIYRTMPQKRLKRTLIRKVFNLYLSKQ
# Chain of PRC2 (Q15022 whole entry partner): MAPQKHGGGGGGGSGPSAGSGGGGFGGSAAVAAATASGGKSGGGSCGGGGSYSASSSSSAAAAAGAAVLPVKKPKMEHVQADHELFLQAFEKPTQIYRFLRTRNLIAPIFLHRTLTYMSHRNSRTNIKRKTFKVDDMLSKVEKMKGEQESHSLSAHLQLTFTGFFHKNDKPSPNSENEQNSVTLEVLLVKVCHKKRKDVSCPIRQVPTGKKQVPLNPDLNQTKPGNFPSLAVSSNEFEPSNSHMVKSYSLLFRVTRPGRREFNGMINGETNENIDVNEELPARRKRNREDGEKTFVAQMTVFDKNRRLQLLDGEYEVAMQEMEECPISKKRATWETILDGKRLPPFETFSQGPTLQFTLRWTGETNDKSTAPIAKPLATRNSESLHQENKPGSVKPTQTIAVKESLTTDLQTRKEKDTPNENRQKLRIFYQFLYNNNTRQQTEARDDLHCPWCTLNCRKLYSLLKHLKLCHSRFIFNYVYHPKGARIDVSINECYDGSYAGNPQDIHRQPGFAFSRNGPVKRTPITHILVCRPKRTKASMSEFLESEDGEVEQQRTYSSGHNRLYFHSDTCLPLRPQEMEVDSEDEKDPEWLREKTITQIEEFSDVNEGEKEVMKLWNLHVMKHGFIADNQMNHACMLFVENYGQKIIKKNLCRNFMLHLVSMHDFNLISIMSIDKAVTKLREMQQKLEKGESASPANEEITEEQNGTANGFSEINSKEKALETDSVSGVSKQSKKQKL
# Chain of PRC2 (Q09028 whole entry partner): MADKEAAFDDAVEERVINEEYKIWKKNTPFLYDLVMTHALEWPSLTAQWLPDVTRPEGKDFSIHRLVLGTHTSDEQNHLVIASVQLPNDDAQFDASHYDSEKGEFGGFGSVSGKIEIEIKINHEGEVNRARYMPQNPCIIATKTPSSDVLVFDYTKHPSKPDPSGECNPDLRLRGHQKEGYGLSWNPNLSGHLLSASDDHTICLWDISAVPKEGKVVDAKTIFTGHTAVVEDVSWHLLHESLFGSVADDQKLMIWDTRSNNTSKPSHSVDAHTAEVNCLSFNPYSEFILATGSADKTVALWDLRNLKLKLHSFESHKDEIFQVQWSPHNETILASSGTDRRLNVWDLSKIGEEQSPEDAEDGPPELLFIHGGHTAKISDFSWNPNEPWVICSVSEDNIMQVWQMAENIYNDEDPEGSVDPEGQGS
substance,measurement,value
K27ac: H3 peptide (18 to 37) containing K27acetyl,dose-dependent inhibition of PRC2 methyltransferase activity,"not the K27ac peptide, could inhibit PRC2-dependent methyltransferase activity in a dose-dependent manner"
